Measured values reported in the Human Domainome abundance scans (Beltran et al. 2025).
± gives the uncertainty stated by the source.

B1: POU domain, class 6, transcription factor 2, residues 609 to 663; numbered along this chain, P78424 (parent)
chain: KRRTSFTPQALEILNAHFEKNTHPSGQEMTEIAEKLNYDREVVRVWFCNKRQALK

Variants of: B1
Assay: abundance fitness (aPCA) (normalised: wild type 0, dead -1); higher = more abundant; growth selection in yeast, the domain comes from the species named
Details: Homo sapiens

Row | Variant | abundance fitness
1 | KRRTSFTPQALEILNAHFEKNTHPSGQEMIEIAEKLNYDREVVRVWFCNKRQALK [T30I] | -0.088 ± 0.22
2 | KRRTSFTPQALEILNAHFEKNTHPSGQEMREIAEKLNYDREVVRVWFCNKRQALK [T30R] | -0.119 ± 0.11
3 | KRRTSFTPQALEILNAHFEKNTHPSGQEMHEIAEKLNYDREVVRVWFCNKRQALK [T30H] | -0.061 ± 0.25
4 | KRRTSFTPQALEILNAHFEKNTHPSGQEMQEIAEKLNYDREVVRVWFCNKRQALK [T30Q] | -0.119 ± 0.4
5 | KRRTSFTPQALEILNAHFEKNTHPSGQEMLEIAEKLNYDREVVRVWFCNKRQALK [T30L] | -0.216 ± 0.19
6 | KRRTSFTPQALEILNAHFEKNTHPSGQEMEEIAEKLNYDREVVRVWFCNKRQALK [T30E] | -0.259 ± 0.22
7 | KRRTSFTPQALEILNAHFEKNTHPSGQEMGEIAEKLNYDREVVRVWFCNKRQALK [T30G] | -0.128 ± 0.12
8 | KRRTSFTPQALEILNAHFEKNTHPSGQEMKEIAEKLNYDREVVRVWFCNKRQALK [T30K] | -0.176 ± 0.33
9 | KRRTSFTPQALEILNAHFEKNTHPSGQEMMEIAEKLNYDREVVRVWFCNKRQALK [T30M] | 0.102 ± 0.28
10 | KRRTSFTPQALEILNAHFEKNTHPSGQEMPEIAEKLNYDREVVRVWFCNKRQALK [T30P] | -0.692 ± 0.22
11 | KRRTSFTPQALEILNAHFEKNTHPSGQEMAEIAEKLNYDREVVRVWFCNKRQALK [T30A] | -0.046 ± 0.28
12 | KRRTSFTPQALEILNAHFEKNTHPSGQEMSEIAEKLNYDREVVRVWFCNKRQALK [T30S] | -0.232 ± 0.17
13 | KRRTSFTPQALEILNAHFEKNTHPSGQEMNEIAEKLNYDREVVRVWFCNKRQALK [T30N] | -0.177 ± 0.4
14 | KRRTSFTPQALEILNAHFEKNTHPSGQEMWEIAEKLNYDREVVRVWFCNKRQALK [T30W] | -0.393 ± 0.16
15 | KRRTSFTPQALEILNAHFEKNTHPSGQEMYEIAEKLNYDREVVRVWFCNKRQALK [T30Y] | -0.25 ± 0.18
16 | KRRTSFTPQALEILNAHFEKNTHPSGQTMTEIAEKLNYDREVVRVWFCNKRQALK [E28T] | -0.088 ± 0.14
17 | KRRTSFTPQALEILNAHFEKNTHPSGQDMTEIAEKLNYDREVVRVWFCNKRQALK [E28D] | -0.047 ± 0.23
18 | KRRTSFTPQALEILNAHFEKNTHPSGQRMTEIAEKLNYDREVVRVWFCNKRQALK [E28R] | -0.175 ± 0.091
19 | KRRTSFTPQALEILNAHFEKNTHPSGQNMTEIAEKLNYDREVVRVWFCNKRQALK [E28N] | -0.313 ± 0.13
20 | KRRTSFTPQALEILNAHFEKNTHPSGQCMTEIAEKLNYDREVVRVWFCNKRQALK [E28C] | -0.324 ± 0.12
21 | KRRTSFTPQALEILNAHFEKNTHPSGQKMTEIAEKLNYDREVVRVWFCNKRQALK [E28K] | -0.072 ± 0.37
22 | KRRTSFTPQALEILNAHFEKNTHPSGQSMTEIAEKLNYDREVVRVWFCNKRQALK [E28S] | -0.321 ± 0.088
23 | KRRTSFTPQALEILNAHFEKNTHPSGQMMTEIAEKLNYDREVVRVWFCNKRQALK [E28M] | -0.595 ± 0.3
24 | KRRTSFTPQALEILNAHFEKNTHPSGQGMTEIAEKLNYDREVVRVWFCNKRQALK [E28G] | -0.592 ± 0.087

Row | Variant | abundance fitness
25 | KRRTSFTPQALEILNAHFEKNTHPSGQFMTEIAEKLNYDREVVRVWFCNKRQALK [E28F] | -0.17 ± 0.22
26 | KRRTSFTPQALEILNAHFEKNTHPSGQWMTEIAEKLNYDREVVRVWFCNKRQALK [E28W] | -0.692 ± 0.15
27 | KRRTSFTPQALEILNAHFEKNTHPSGQPMTEIAEKLNYDREVVRVWFCNKRQALK [E28P] | -0.998 ± 0.27
28 | KRRTSFTPQALEILNAHFEKNTHPSGQQMTEIAEKLNYDREVVRVWFCNKRQALK [E28Q] | -0.171 ± 0.29
29 | KRRTSFTPQALEILNAHFEKNTHPSGQVMTEIAEKLNYDREVVRVWFCNKRQALK [E28V] | -0.094 ± 0.11
30 | KRRTSFTPQALEILNAHFEKNTHPSGQYMTEIAEKLNYDREVVRVWFCNKRQALK [E28Y] | -0.113 ± 0.3
31 | KRRTSFTPQALEILNAHFEKNTHPSGQAMTEIAEKLNYDREVVRVWFCNKRQALK [E28A] | -0.157 ± 0.14
32 | KRRTSFTPQALEILNAHFEKNTHPSGQIMTEIAEKLNYDREVVRVWFCNKRQALK [E28I] | -0.02 ± 0.2
33 | KRRTSFTPQALEILNAHFEKNTHPSGTEMTEIAEKLNYDREVVRVWFCNKRQALK [Q27T] | 0.022 ± 0.11
34 | KRRTSFTPQALEILNAHFEKNTHPSGVEMTEIAEKLNYDREVVRVWFCNKRQALK [Q27V] | -0.091 ± 0.075
35 | KRRTSFTPQALEILNAHFEKNTHPSGSEMTEIAEKLNYDREVVRVWFCNKRQALK [Q27S] | -0.071 ± 0.084
36 | KRRTSFTPQALEILNAHFEKNTHPSGWEMTEIAEKLNYDREVVRVWFCNKRQALK [Q27W] | -0.142 ± 0.086
37 | KRRTSFTPQALEILNAHFEKNTHPSGYEMTEIAEKLNYDREVVRVWFCNKRQALK [Q27Y] | -0.315 ± 0.2
38 | KRRTSFTPQALEILNAHFEKNTHPSGREMTEIAEKLNYDREVVRVWFCNKRQALK [Q27R] | 0.012 ± 0.068
39 | KRRTSFTPQALEILNAHFEKNTHPSGQEMTEIAEELNYDREVVRVWFCNKRQALK [K35E] | -0.154 ± 0.18
40 | KRRTSFTPQALEILNAHFEKNTHPSGQEMTEIAEILNYDREVVRVWFCNKRQALK [K35I] | -0.167 ± 0.25
41 | KRRTSFTPQALEILNAHFEKNTHPSGQEMTEIAEFLNYDREVVRVWFCNKRQALK [K35F] | -0.194 ± 0.14
42 | KRRTSFTPQALEILNAHFEKNTHPSGQEMTEIAEGLNYDREVVRVWFCNKRQALK [K35G] | -0.087 ± 0.088
43 | KRRTSFTPQALEILNAHFEKNTHPSGQEMTEIAECLNYDREVVRVWFCNKRQALK [K35C] | -0.186 ± 0.12
44 | KRRTSFTPQALEILNAHFEKNTHPSGQEMTEIAEDLNYDREVVRVWFCNKRQALK [K35D] | -0.139 ± 0.12
45 | KRRTSFTPQALEILNAHFEKNTHPSGQEMTEIAEHLNYDREVVRVWFCNKRQALK [K35H] | -0.221 ± 0.44
46 | KRRTSFTPQALEILNAHFEKNTHPSGQEMTEIAENLNYDREVVRVWFCNKRQALK [K35N] | -0.255 ± 0.21
47 | KRRTSFTPQALEILNAHFEKNTHPSGQEMTEIAEMLNYDREVVRVWFCNKRQALK [K35M] | -0.062 ± 0.11
48 | KRRTSFTPQALEILNAHFEKNTHPSGQEMTEIAELLNYDREVVRVWFCNKRQALK [K35L] | -0.01 ± 0.1
